Results on one substance are retold here after patent US20140304847A1.

This assay addresses Ku70 (endogenous full length protein of the human HEK 293 reporter cells) (UniProt P12956). The assay is described as follows: cell-based or functional assay.

With “truncated Ku80 protein, residues 427-732 of mouse Ku80, expressed from pCAG-Ku80(427-732)-bpA (from UniProt P27641 427-732)”, the fold increase of homologous recombination in 293Rab-Rep#4 reporter cells against transfection without the Ku80 fragment came out at 2 fold.
